The source of these data is patent US20150104459A1.

Assay [1] has as its target M2 protein of influenza A/Hong Kong/483/97 (H5N1) (influenza A virus A/Hong Kong/483/97 (H5N1)).
Assay [2] addresses Hemagglutinin of influenza A/Solomon Islands/3/06 (H1N1) on whole virions (Influenza A virus A/Solomon Islands/3/2006(H1N1)).
Assay [3] addresses Hemagglutinin of influenza A/Wisconsin/67/05 (H3N2) on whole virions (Influenza A virus A/Wisconsin/67/2005(H3N2)).
Assay [4] has as its target hemagglutinin (HA) of live influenza A/California/4/09 (H1N1) virus (influenza A virus A/California/04/2009 (H1N1)). The assay can be described thus: cell-based or functional assay.
In assay [5] the target is hemagglutinin (HA) of live influenza A/Solomon Islands/3/06 (H1N1) virus (influenza A virus A/Solomon Islands/3/2006 (H1N1)). The assay can be described thus: cell-based or functional assay.
Assay [6] has as its target hemagglutinin (HA) of live influenza A/Wisconsin/67/05 (H3N2) virus (influenza A virus A/Wisconsin/67/2005 (H3N2)). Put plainly: cell-based or functional assay.
In assay [7] the target is recombinant soluble homotrimeric HA of A/Anhui/1/05 (H5N1) (Influenza A virus A/Anhui/1/2005 (H5N1)). Put plainly: HA microarray, control mAb.
For assay [8], the target named is recombinant soluble homotrimeric HA of A/California/4/09 (H1N1) (Influenza A virus A/California/04/2009 (H1N1)). The assay can be described thus: HA microarray, control mAb.
For assay [9], the target named is recombinant soluble homotrimeric HA of A/Egypt/3300-NAMRU3/08 (H5N1) (Influenza A virus A/Egypt/3300-NAMRU3/2008 (H5N1)). Put plainly: HA microarray, control mAb.
Assay [10] addresses recombinant soluble homotrimeric HA of A/Hong Kong/2108/03 (H9N2) (Influenza A virus A/Hong Kong/2108/2003 (H9N2)). Put plainly: HA microarray, control mAb.
Assay [11] has as its target recombinant soluble homotrimeric HA of A/Indonesia/5/05 (H5N1) (Influenza A virus A/Indonesia/5/2005 (H5N1)). Put plainly: HA microarray, control mAb.
The target of assay [12] is recombinant soluble homotrimeric HA of A/Japan/305/57 (H2N2) (Influenza A virus A/Japan/305/1957 (H2N2)). The assay can be described thus: HA microarray, control mAb.
Assay [13] deals with recombinant soluble homotrimeric HA of A/Netherlands/219/03 (H7N7) (Influenza A virus A/Netherlands/219/03 (H7N7)). The assay can be described thus: HA microarray, control mAb.
Assay [14] deals with recombinant soluble homotrimeric HA of A/Solomon Islands/3/06 (H1N1) (Influenza A virus A/Solomon Islands/3/2006 (H1N1)). The assay can be described thus: HA microarray, control mAb.
Assay [15] deals with recombinant soluble homotrimeric HA of A/Vietnam/1203/04 (H5N1) (Influenza A virus A/Vietnam/1203/2004 (H5N1)). The assay can be described thus: HA microarray, control mAb.
The target of assay [16] is recombinant soluble homotrimeric HA of A/Wisconsin/67/05 (H3N2) (Influenza A virus A/Wisconsin/67/2005 (H3N2)). The assay can be described thus: HA microarray, control mAb.
In assay [17] the target is recombinant soluble homotrimeric HA of A/chicken/Vietnam/NCVD-016/08 (H5N1) (Influenza A virus A/chicken/Vietnam/NCVD-016/2008 (H5N1)). Put plainly: HA microarray, control mAb.
The target in assay [18] is recombinant soluble homotrimeric HA of A/duck/Yangzhou/02/2005 (H8N4) (Influenza A virus A/duck/Yangzhou/02/2005 (H8N4)). Put plainly: HA microarray, control mAb.
The target in assay [19] is recombinant soluble homotrimeric HA of A/northern shoveler/California/HKWF115/2007 (H6N1) (Influenza A virus A/northern shoveler/California/HKWF115/2007 (H6N1)). The assay can be described thus: HA microarray, control mAb.
Assay [20] has as its target recombinant soluble homotrimeric HA of A/swine/Ontario/01911-2/99 (H4N6) (Influenza A virus A/Swine/Ontario/01911-2/99 (H4N6)). The assay can be described thus: HA microarray, control mAb.
For assay [21], the target named is recombinant soluble homotrimeric HA, A/Hong Kong/1073/99 (H9N2) (influenza A virus A/Hong Kong/1073/99 (H9N2)). The assay can be described thus: microarray, trimeric HA, transfection supernatant.
The target in assay [22] is recombinant soluble homotrimeric HA, A/Hong Kong/156/97 (H5N1) (influenza A virus A/Hong Kong/156/97 (H5N1)). The assay can be described thus: microarray, trimeric HA, transfection supernatant.
The target of assay [23] is recombinant soluble homotrimeric HA, A/Hong Kong/2108/03 (H9N2) (influenza A virus A/Hong Kong/2108/2003 (H9N2)). Put plainly: microarray, trimeric HA, transfection supernatant.
The target of assay [24] is recombinant homotrimeric HA, A/California/4/09 H1N1 (Influenza A virus A/California/4/09 (H1N1)). Put plainly: trimeric HA microarray; transfection supernatant set 5.
The target of assay [25] is recombinant homotrimeric HA, A/Egypt/3300-NAMRU3/08 H5N1 (Influenza A virus A/Egypt/3300-NAMRU3/08 (H5N1)). Described as above.
Assay [26] concerns the target recombinant homotrimeric HA, A/Indonesia/5/05 H5N1 (Influenza A virus A/Indonesia/5/05 (H5N1)). Described as above.
Assay [27] has as its target recombinant homotrimeric HA, A/Japan/305/57 H2N2 (Influenza A virus A/Japan/305/57 (H2N2)). The assay is described as above.
For assay [28], the target named is recombinant homotrimeric HA, A/Solomon Islands/3/06 H1N1 (Influenza A virus A/Solomon Islands/3/06 (H1N1)). Described as above.
Assay [29] has as its target recombinant homotrimeric HA, A/South Carolina/1/18 H1N1 (Influenza A virus A/South Carolina/1/18 (H1N1)). Described as above.
The target of assay [30] is recombinant homotrimeric HA, A/Vietnam/1203/04 H5N1 (Influenza A virus A/Vietnam/1203/04 (H5N1)). Described as above.
The target of assay [31] is recombinant homotrimeric HA, A/Wisconsin/67/05 H3N2 (Influenza A virus A/Wisconsin/67/05 (H3N2)). Described as above.
Assay [32] has as its target recombinant homotrimeric HA, A/swine/Ontario/01911-2/99 H4N6 (Influenza A virus A/swine/Ontario/01911-2/99 (H4N6)). Described as above.
For assay [33], the target named is M2 protein of influenza A/Puerto Rico/8/34 (H1N1), on virus particles (influenza A virus A/Puerto Rico/8/34 (H1N1)) (UniProt P06821).

“And” between values parts separate entries of the source, which are not always exact repeats. Equal entries are not always repeated.
Wherever FACS M2-HK MFI is given: test concentration or dose not given here.
Wherever OD450 is given: test concentration or dose not given here.
Wherever Virus ELISA OD A450 is given: test concentration or dose not given here.

Chain of TCN-032 (8I10) (antibody) (VH): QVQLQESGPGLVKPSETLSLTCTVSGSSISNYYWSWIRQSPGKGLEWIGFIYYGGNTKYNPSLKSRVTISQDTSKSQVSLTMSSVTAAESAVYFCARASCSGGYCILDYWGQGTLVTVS
Chain of TCN-032 (8I10) (antibody) (VL): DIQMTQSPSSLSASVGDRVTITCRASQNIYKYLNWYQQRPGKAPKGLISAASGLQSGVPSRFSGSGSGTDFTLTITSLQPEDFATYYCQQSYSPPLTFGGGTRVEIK

For TCN-032 (8I10) (antibody), the FACS M2-HK MFI in [1] was 754 MFI and 1080 MFI.

For the substance TCN-202 (2N9) (antibody), the OD450 in assay [2] was 0.07 OD450 and 0.08 OD450 and 0.1 OD450; in [3], 0.07 OD450 and 0.08 OD450. Moreover, the % Neutralization in assay [4] is 0%; in assay [5] it was 0% and 7%; in assay [6] it was 17.8% and 0%. Moreover, the Trimeric HA Binding RLU in [7] was 25 RLU; in assay [8], 39 RLU; in [9], 1280 RLU; in assay [10], 50 RLU; in [11] it was 24 RLU; in [12] it was 85 RLU. For the same substance, the Trimeric HA Binding RLU in assay [13] stood at 348 RLU; in assay [14], 46 RLU; in assay [15], 53 RLU; in [16] it was 252 RLU; in assay [17], 69 RLU; in [18], 196 RLU. In addition, the Trimeric HA Binding RLU in [19] was 105 RLU; in assay [20] it was 75 RLU; in assay [21], 57 RLU and 81 RLU; in assay [22], 945 RLU; in assay [23], 30 RLU and 22 RLU. In addition, the Trimeric HA Binding: RLU in [24] was found to be 733 RLU; in assay [25] it was 13900 RLU; in assay [26], 1970 RLU; in assay [27], 1880 RLU; in assay [28], 525 RLU; in assay [29], 5330 RLU. In addition, the Trimeric HA Binding: RLU turned out to be 30000 RLU in assay [30], 581 RLU in assay [31] and 2690 RLU in [32].

For the substance mAb 2N9 (antibody), the FACS M2-HK MFI in [1] is 11 MFI and 6 MFI. For the same substance, in [33], the Virus ELISA OD A450 is 0.15 OD A450 and 0.05 OD A450.
